According to US20020123056:

System: T1, GST-SGK2 fusion protein (human SGK2 with N-terminal Glutathione S-transferase tag, expressed in Hi5 insect cells)
T1 sequence: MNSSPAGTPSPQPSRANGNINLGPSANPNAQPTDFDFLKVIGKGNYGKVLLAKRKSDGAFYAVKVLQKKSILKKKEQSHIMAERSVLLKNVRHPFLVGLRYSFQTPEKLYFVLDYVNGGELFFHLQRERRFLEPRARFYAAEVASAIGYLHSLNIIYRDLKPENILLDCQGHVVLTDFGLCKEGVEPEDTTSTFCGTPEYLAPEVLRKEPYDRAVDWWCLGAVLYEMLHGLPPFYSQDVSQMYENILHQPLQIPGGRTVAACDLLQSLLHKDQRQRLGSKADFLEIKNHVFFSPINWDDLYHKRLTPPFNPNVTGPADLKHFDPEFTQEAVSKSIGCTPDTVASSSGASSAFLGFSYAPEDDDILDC

active His-tag PDK1 (expressed in insect cells, purified on Talon affinity column)
in vitro phosphorylation of SGK2 by PDK1 (32P, SDS-PAGE imaging): SGK2 activated by PKD1 was significantly phosphorylated, while non-activated SGK2 was not
